Numbered stars: 1 amine (or outer) side, 2 acyl side, 3 side chain; on linkers, the order of the positions; unused ones are H or OH. Square brackets hold non-standard residues; d marks the D form. Side chains are listed from the residue outwards. Ends that are not written are not given here. * marks the point of attachment. C20 diacid = O=C(O)CCCCCCCCCCCCCCCCCCC(=O)*; γGlu = O=C(O)[C@H](CCC(=O)[*:2])N[*:1]; AEEA = NCCOCCOCC(=O)O; Aib = CC(C)(N)C(=O)O
B1: SEQ ID NO: 184 (peptide)
peptide: H[Aib]EGTFTSDVSVLLEGAALQRFIQWLV-NH2
modifications: N-terminus assumed
SMILES: CC[C@H](C)[C@H](NC(=O)[C@H](Cc1ccccc1)NC(=O)[C@H](CCCNC(=N)N)NC(=O)[C@H](CCC(N)=O)NC(=O)[C@H](CC(C)C)NC(=O)[C@H](C)NC(=O)[C@H](C)NC(=O)CNC(=O)[C@H](CCC(=O)O)NC(=O)[C@H](CC(C)C)NC(=O)[C@H](CC(C)C)NC(=O)[C@@H](NC(=O)[C@H](CO)NC(=O)[C@@H](NC(=O)[C@H](CC(=O)O)NC(=O)[C@H](CO)NC(=O)[C@@H](NC(=O)[C@H](Cc1ccccc1)NC(=O)[C@@H](NC(=O)CNC(=O)[C@H](CCC(=O)O)NC(=O)C(C)(C)NC(=O)[C@@H](N)Cc1c[nH]cn1)[C@@H](C)O)[C@@H](C)O)C(C)C)C(C)C)C(=O)N[C@@H](CCC(N)=O)C(=O)N[C@@H](Cc1c[nH]c2ccccc12)C(=O)N[C@@H](CC(C)C)C(=O)N[C@H](C(N)=O)C(C)C
B2: SEQ ID NO: 185 (peptide)
peptide: H[Aib]EGTFTSDWSYLK([AEEA-AEEA-γGlu-C20 diacid])EEA[Aib]LQRFLEHLV-NH2
B3: SEQ ID NO: 182 (peptide)
peptide: H[Aib]EGTFTSDVSGLLEGAALQRFIQWLV-NH2
modifications: N-terminus assumed
SMILES: CC[C@H](C)[C@H](NC(=O)[C@H](Cc1ccccc1)NC(=O)[C@H](CCCNC(=N)N)NC(=O)[C@H](CCC(N)=O)NC(=O)[C@H](CC(C)C)NC(=O)[C@H](C)NC(=O)[C@H](C)NC(=O)CNC(=O)[C@H](CCC(=O)O)NC(=O)[C@H](CC(C)C)NC(=O)[C@H](CC(C)C)NC(=O)CNC(=O)[C@H](CO)NC(=O)[C@@H](NC(=O)[C@H](CC(=O)O)NC(=O)[C@H](CO)NC(=O)[C@@H](NC(=O)[C@H](Cc1ccccc1)NC(=O)[C@@H](NC(=O)CNC(=O)[C@H](CCC(=O)O)NC(=O)C(C)(C)NC(=O)[C@@H](N)Cc1c[nH]cn1)[C@@H](C)O)[C@@H](C)O)C(C)C)C(=O)N[C@@H](CCC(N)=O)C(=O)N[C@@H](Cc1c[nH]c2ccccc12)C(=O)N[C@@H](CC(C)C)C(=O)N[C@H](C(N)=O)C(C)C
B4: SEQ ID NO: 183 (peptide)
peptide: H[Aib]EGTFTSDVSWLLEGAALQRFIQWLV-NH2
modifications: N-terminus assumed
SMILES: CC[C@H](C)[C@H](NC(=O)[C@H](Cc1ccccc1)NC(=O)[C@H](CCCNC(=N)N)NC(=O)[C@H](CCC(N)=O)NC(=O)[C@H](CC(C)C)NC(=O)[C@H](C)NC(=O)[C@H](C)NC(=O)CNC(=O)[C@H](CCC(=O)O)NC(=O)[C@H](CC(C)C)NC(=O)[C@H](CC(C)C)NC(=O)[C@H](Cc1c[nH]c2ccccc12)NC(=O)[C@H](CO)NC(=O)[C@@H](NC(=O)[C@H](CC(=O)O)NC(=O)[C@H](CO)NC(=O)[C@@H](NC(=O)[C@H](Cc1ccccc1)NC(=O)[C@@H](NC(=O)CNC(=O)[C@H](CCC(=O)O)NC(=O)C(C)(C)NC(=O)[C@@H](N)Cc1c[nH]cn1)[C@@H](C)O)[C@@H](C)O)C(C)C)C(=O)N[C@@H](CCC(N)=O)C(=O)N[C@@H](Cc1c[nH]c2ccccc12)C(=O)N[C@@H](CC(C)C)C(=O)N[C@H](C(N)=O)C(C)C
B5: SEQ ID NO: 187 (peptide)
peptide: H[Aib]EGTFTSDWSGLLEGAALQRFIQWLV-NH2
modifications: N-terminus assumed
SMILES: CC[C@H](C)[C@H](NC(=O)[C@H](Cc1ccccc1)NC(=O)[C@H](CCCNC(=N)N)NC(=O)[C@H](CCC(N)=O)NC(=O)[C@H](CC(C)C)NC(=O)[C@H](C)NC(=O)[C@H](C)NC(=O)CNC(=O)[C@H](CCC(=O)O)NC(=O)[C@H](CC(C)C)NC(=O)[C@H](CC(C)C)NC(=O)CNC(=O)[C@H](CO)NC(=O)[C@H](Cc1c[nH]c2ccccc12)NC(=O)[C@H](CC(=O)O)NC(=O)[C@H](CO)NC(=O)[C@@H](NC(=O)[C@H](Cc1ccccc1)NC(=O)[C@@H](NC(=O)CNC(=O)[C@H](CCC(=O)O)NC(=O)C(C)(C)NC(=O)[C@@H](N)Cc1c[nH]cn1)[C@@H](C)O)[C@@H](C)O)C(=O)N[C@@H](CCC(N)=O)C(=O)N[C@@H](Cc1c[nH]c2ccccc12)C(=O)N[C@@H](CC(C)C)C(=O)N[C@H](C(N)=O)C(C)C
B6: SEQ ID NO: 189 (peptide)
peptide: H[Aib]EGTFTSDWSYLLEGAALQRFIQWLV-NH2
modifications: N-terminus assumed
SMILES: CC[C@H](C)[C@H](NC(=O)[C@H](Cc1ccccc1)NC(=O)[C@H](CCCNC(=N)N)NC(=O)[C@H](CCC(N)=O)NC(=O)[C@H](CC(C)C)NC(=O)[C@H](C)NC(=O)[C@H](C)NC(=O)CNC(=O)[C@H](CCC(=O)O)NC(=O)[C@H](CC(C)C)NC(=O)[C@H](CC(C)C)NC(=O)[C@H](Cc1ccc(O)cc1)NC(=O)[C@H](CO)NC(=O)[C@H](Cc1c[nH]c2ccccc12)NC(=O)[C@H](CC(=O)O)NC(=O)[C@H](CO)NC(=O)[C@@H](NC(=O)[C@H](Cc1ccccc1)NC(=O)[C@@H](NC(=O)CNC(=O)[C@H](CCC(=O)O)NC(=O)C(C)(C)NC(=O)[C@@H](N)Cc1c[nH]cn1)[C@@H](C)O)[C@@H](C)O)C(=O)N[C@@H](CCC(N)=O)C(=O)N[C@@H](Cc1c[nH]c2ccccc12)C(=O)N[C@@H](CC(C)C)C(=O)N[C@H](C(N)=O)C(C)C
B7: SEQ ID NO: 188 (peptide)
peptide: H[Aib]EGTFTSDWSVLLEGAALQRFIQWLV-NH2
modifications: N-terminus assumed
SMILES: CC[C@H](C)[C@H](NC(=O)[C@H](Cc1ccccc1)NC(=O)[C@H](CCCNC(=N)N)NC(=O)[C@H](CCC(N)=O)NC(=O)[C@H](CC(C)C)NC(=O)[C@H](C)NC(=O)[C@H](C)NC(=O)CNC(=O)[C@H](CCC(=O)O)NC(=O)[C@H](CC(C)C)NC(=O)[C@H](CC(C)C)NC(=O)[C@@H](NC(=O)[C@H](CO)NC(=O)[C@H](Cc1c[nH]c2ccccc12)NC(=O)[C@H](CC(=O)O)NC(=O)[C@H](CO)NC(=O)[C@@H](NC(=O)[C@H](Cc1ccccc1)NC(=O)[C@@H](NC(=O)CNC(=O)[C@H](CCC(=O)O)NC(=O)C(C)(C)NC(=O)[C@@H](N)Cc1c[nH]cn1)[C@@H](C)O)[C@@H](C)O)C(C)C)C(=O)N[C@@H](CCC(N)=O)C(=O)N[C@@H](Cc1c[nH]c2ccccc12)C(=O)N[C@@H](CC(C)C)C(=O)N[C@H](C(N)=O)C(C)C
B8: SEQ ID NO: 19 (peptide)
peptide: H[Aib]EGTFTSDVSRLK([AEEA-AEEA-γGlu-C20 diacid])ELAASQRFLEHLV-NH2

Key:
[1] = target: human GLP-1 receptor (hGLP1R) (human, UniProt P43220 24-463); test: cell-based or functional assay
[2] = target: human secretin receptor (hSCTR) (human, UniProt P47872 23-440); test: cell-based or functional assay
human secretin receptor (hSCTR), sequence (P47872 23-440): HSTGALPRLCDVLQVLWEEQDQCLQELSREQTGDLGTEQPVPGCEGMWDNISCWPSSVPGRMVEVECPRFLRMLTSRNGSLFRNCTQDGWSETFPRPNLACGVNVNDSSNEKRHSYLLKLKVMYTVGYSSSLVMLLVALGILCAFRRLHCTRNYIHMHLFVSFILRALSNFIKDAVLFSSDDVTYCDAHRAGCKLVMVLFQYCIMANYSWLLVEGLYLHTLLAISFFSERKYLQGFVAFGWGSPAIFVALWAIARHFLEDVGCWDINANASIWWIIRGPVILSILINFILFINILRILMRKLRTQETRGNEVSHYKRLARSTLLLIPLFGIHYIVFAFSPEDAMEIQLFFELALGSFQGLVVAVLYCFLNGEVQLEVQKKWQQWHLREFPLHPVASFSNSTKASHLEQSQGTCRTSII

Binder	pEC50 hGLPR1 [1]	pEC50 hSCTR [2]
B1	10.6 -log M	6.6 -log M
B2	11.2 -log M	7.3 -log M
B3	10.3 -log M	6.8 -log M
B4	10.3 -log M	6.8 -log M
B5	10.4 -log M	7.3 -log M
B6	10.8 -log M	6.8 -log M
B7	10.1 -log M	7.5 -log M
B8	10.1 -log M	6.2 -log M
